Here are results for 8 molecules from US20230395193A1 (priority 2020, published 2023).

For the test, the system named is SARS-CoV-1, MERS-CoV and SARS-CoV-2 proteins in HEK293T cells. Details: species or system human.

B1: E-Q6DD88 (protein, UniProt Q6DD88 1-541, looked up)
Atlastin-3: MLSPQRVAAAASRGADDAMESSKPGPVQVVLVQKDQHSFELDEKALASILLQDHIRDLDVVVVSVAGAFRKGKSFILDFMLRYLYSQKESGHSNWLGDPEEPLTGFSWRGGSDPETTGIQIWSEVFTVEKPGGKKVAVVLMDTQGAFDSQSTVKDCATIFALSTMTSSVQIYNLSQNIQEDDLQQLQLFTEYGRLAMDEIFQKPFQTLMFLVRDWSFPYEYSYGLQGGMAFLDKRLQVKEHQHEEIQNVRNHIHSCFSDVTCFLLPHPGLQVATSPDFDGKLKDIAGEFKEQLQALIPYVLNPSKLMEKEINGSKVTCRGLLEYFKAYIKIYQGEDLPHPKSMLQATAEANNLAAAASAKDIYYNNMEEVCGGEKPYLSPDILEEKHCEFKQLALDHFKKTKKMGGKDFSFRYQQELEEEIKELYENFCKHNGSKNVFSTFRTPAVLFTGIVALYIASGLTGFIGLEVVAQLFNCMVGLLLIALLTWGYIRYSGQYRELGGAIDFGAAYVLEQASSHIGNSTQATVRDAVVGRPSMDKKAQ
modifications: interactor of SARS-CoV-2 E
As to B1, the MIST_MERS is recorded as 0.9832, the MIST_SARS1 was 0, the MIST_SARS2 turned out to be 0 and the Saint_MERS worked out at 1. In addition, the Saint_SARS1 was determined as 0 and the Saint_SARS2 turned out to be 0.

B2: E-Q9BTV4 (protein, UniProt Q9BTV4 2-400, looked up)
Transmembrane protein 43: AANYSSTSTRREHVKVKTSSQPGFLERLSETSGGMFVGLMAFLLSFYLIFTNEGRALKTATSLAEGLSLVVSPDSIHSVAPENEGRLVHIIGALRTSKLLSDPNYGVHLPAVKLRRHVEMYQWVETEESREYTEDGQVKKETRYSYNTEWRSEIINSKNFDREIGHKNPSAMAVESFMATAPFVQIGRFFLSSGLIDKVDNFKSLSLSKLEDPHVDIIRRGDFFYHSENPKYPEVGDLRVSFSYAGLSGDDPDLGPAHVVTVIARQRGDQLVPFSTKSGDTLLLLHHGDFSAEEVFHRELRSNSMKTWGLRAAGWMAMFMGLNLMTRILYTLVDWFPVFRDLVNIGLKAFAFCVATSLTLLTVAAGWLFYRPLWALLIAGLALVPILVARTRVPAKKLE
In the case of B2, the MIST_MERS stood at 0.8753, the MIST_SARS1 is 0, the MIST_SARS2 came to 0 and the Saint_MERS is listed as 1. Moreover, the Saint_SARS1 came to 0 and the Saint_SARS2 is reported as 0.

B3: M-Q9ULF5 (protein, UniProt Q9ULF5 26-831, looked up)
Zinc transporter ZIP10: HEEHDHGPEALHRQHRGMTELEPSKFSKQAAENEKKYYIEKLFERYGENGRLSFFGLEKLLTNLGLGERKVVEINHEDLGHDHVSHLDILAVQEGKHFHSHNHQHSHNHLNSENQTVTSVSTKRNHKCDPEKETVEVSVKSDDKHMHDHNHRLRHHHRLHHHLDHNNTHHFHNDSITPSERGEPSNEPSTETNKTQEQSDVKLPKGKRKKKGRKSNENSEVITPGFPPNHDQGEQYEHNRVHKPDRVHNPGHSHVHLPERNGHDPGRGHQDLDPDNEGELRHTRKREAPHVKNNAIISLRKDLNEDDHHHECLNVTQLLKYYGHGANSPISTDLFTYLCPALLYQIDSRLCIEHFDKLLVEDINKDKNLVPEDEANIGASAWICGIISITVISLLSLLGVILVPIINQGCFKFLLTFLVALAVGTMSGDALLHLLPHSQGGHDHSHQHAHGHGHSHGHESNKFLEEYDAVLKGLVALGGIYLLFIIEHCIRMFKHYKQQRGKQKWFMKQNTEESTIGRKLSDHKLNNTPDSDWLQLKPLAGTDDSVVSEDRLNETELTDLEGQQESPPKNYLCIEEEKIIDHSHSDGLHTIHEHDLHAAAHNHHGENKTVLRKHNHQWHHKHSHHSHGPCHSGSDLKETGIANIAWMVIMGDGIHNFSDGLAIGAAFSAGLTGGISTSIAVFCHELPHELGDFAVLLKAGMTVKQAIVYNLLSAMMAYIGMLIGTAVGQYANNITLWIFAVTAGMFLYVALVDMLPEMLHGDGDNEEHGFCPVGQFILQNLGLLFGFAIMLVIALYEDKIVFDIQF
Regarding B3, the MIST_MERS worked out at 0, the MIST_SARS1 was determined as 0.7375, the MIST_SARS2 is recorded as 0 and the Saint_MERS is 0. The same molecule had a Saint_SARS1 of 1 and a Saint_SARS2 of 0.

B4: E-Q9NPI6 (protein, UniProt Q9NPI6 1-582, looked up)
mRNA-decapping enzyme 1A: MEALSRAGQEMSLAALKQHDPYITSIADLTGQVALYTFCPKANQWEKTDIEGTLFVYRRSASPYHGFTIVNRLNMHNLVEPVNKDLEFQLHEPFLLYRNASLSIYSIWFYDKNDCHRIAKLMADVVEEETRRSQQAARDKQSPSQANGCSDHRPIDILEMLSRAKDEYERNQMGDSNISSPGLQPSTQLSNLGSTETLEEMPSGSQDKSAPSGHKHLTVEELFGTSLPKEQPAVVGLDSEEMERLPGDASQKEPNSFLPFPFEQLGGAPQSETLGVPSAAHHSVQPEITTPVLITPASITQSNEKHAPTYTIPLSPVLSPTLPAEAPTAQVPPSLPRNSTMMQAVKTTPRQRSPLLNQPVPELSHASLIANQSPFRAPLNVTNTAGTSLPSVDLLQKLRLTPQHDQIQTQPLGKGAMVASFSPAAGQLATPESFIEPPSKTAAARVAASASLSNMVLAPLQSMQQNQDPEVFVQPKVLSSAIPVAGAPLVTATTTAVSSVLLAPSVFQQTVTRSSDLERKASSPSPLTIGTPESQRKPSIILSKSQLQDTLIHLIKNDSSFLSTLHEVYLQVLTKNKDNHNL
modifications: interactor of SARS-CoV-2 E
B4 displayed an MIST_MERS of 0.9797, an MIST_SARS1 of 0, an MIST_SARS2 of 0 and a Saint_MERS of 1. The Saint_SARS1 came out at 0 and the Saint_SARS2 turned out to be 0.

B5: E-Q6UX04 (protein, UniProt Q6UX04 2-472, looked up)
Spliceosome-associated …: SNIYIQEPPTNGKVLLKTTAGDIDIELWSKEAPKACRNFIQLCLEAYYDNTIFHRVVPGFIVQGGDPTGTGSGGESIYGAPFKDEFHSRLRFNRRGLVAMANAGSHDNGSQFFFTLGRADELNNKHTIFGKVTGDTVYNMLRLSEVDIDDDERPHNPHKIKSCEVLFNPFDDIIPREIKRLKKEKPEEEVKKLKPKGTKNFSLLSFGEEAEEEEEEVNRVSQSMKGKSKSSHDLLKDDPHLSSVPVVESEKGDAPDLVDDGEDESAEHDEYIDGDEKNLMRERIAKKLKKDTSANVKSAGEGEVEKKSVSRSEELRKEARQLKRELLAAKQKKVENAAKQAEKRSEEEEAPPDGAVAEYRREKQKYEALRKQQSKKGTSREDQTLALLNQFKSKLTQAIAETPENDIPETEVEDDEGWMSHVLQFEDKSRKVKDASMQDSDTFEIYDPRNPVNKRRREESKKLMREKKERR
modifications: interactor of E protein
In the case of B5, the MIST_MERS is listed as 0.03892, the MIST_SARS1 worked out at 0.6535, the MIST_SARS2 is 0.8931 and the Saint_MERS was determined as 0. For the same molecule, the Saint_SARS1 came to 0.98 and the Saint_SARS2 stood at 0.66.

B6: E-Q8WY22 (protein, UniProt Q8WY22 1-251, looked up)
BRI3-binding protein: MGARASGGPLARAGLLLLLLLLLLLGLLAPGAQGARGRGGAEKNSYRRTVNTFSQSVSSLFGEDNVRAAQKFLARLTERFVLGVDMFVETLWKVWTELLDVLGLDVSNLSQYFSPASVSSSPARALLLVGVVLLAYWFLSLTLGFTFSVLHVVFGRFFWIVRVVLFSMSCVYILHKYEGEPENAVLPLCFVVAVYFMTGPMGFYWRSSPSGPSNPSNPSVEEKLEHLEKQVRLLNIRLNRVLESLDRSKDK
modifications: prey of SARS-CoV-2 E
Take B6: the MIST_MERS is on record as 0.9912, the MIST_SARS1 is recorded as 0, the MIST_SARS2 was 0 and the Saint_MERS was found to be 1. For the same molecule, the Saint_SARS1 is listed as 0 and the Saint_SARS2 was 0.

B7: M-Q9ULX6 (protein, UniProt Q9ULX6 1-646, looked up)
A-kinase anchor protein 8-like: MSYTGFVQGSETTLQSTYSDTSAQPTCDYGYGTWNSGTNRGYEGYGYGYGYGQDNTTNYGYGMATSHSWEMPSSDTNANTSASGSASADSVLSRINQRLDMVPHLETDMMQGGVYGSGGERYDSYESCDSRAVLSERDLYRSGYDYSELDPEMEMAYEGQYDAYRDQFRMRGNDTFGPRAQGWARDARSGRPMASGYGRMWEDPMGARGQCMSGASRLPSLFSQNIIPEYGMFQGMRGGGAFPGGSRFGFGFGNGMKQMRRTWKTWTTADFRTKKKKRKQGGSPDEPDSKATRTDCSDNSDSDNDEGTEGEATEGLEGTEAVEKGSRVDGEDEEGKEDGREEGKEDPEKGALTTQDENGQTKRKLQAGKKSQDKQKKRQRDRMVERIQFVCSLCKYRTFYEDEMASHLDSKFHKEHFKYVGTKLPKQTADFLQEYVTNKTKKTEELRKTVEDLDGLIQQIYRDQDLTQEIAMEHFVKKVEAAHCAACDLFIPMQFGIIQKHLKTMDHNRNRRLMMEQSKKSSLMVARSILNNKLISKKLERYLKGENPFTDSPEEEKEQEEAEGGALDEGAQGEAAGISEGAEGVPAQPPVPPEPAPGAVSPPPPPPPEEEEEGAVPLLGGALQRQIRGIPGLDVEDDEEGGGGAP
As for B7, the MIST_MERS is given as 0, the MIST_SARS1 was determined as 0.34, the MIST_SARS2 turned out to be 0.752 and the Saint_MERS is 0. In addition, the Saint_SARS1 is on record as 0.98 and the Saint_SARS2 was 1.

B8: E-Q8IWA5 (protein, UniProt Q8IWA5 1-706, looked up)
Choline transporter-like …: MGDERPHYYGKHGTPQKYDPTFKGPIYNRGCTDIICCVFLLLAIVGYVAVGIIAWTHGDPRKVIYPTDSRGEFCGQKGTKNENKPYLFYFNIVKCASPLVLLEFQCPTPQICVEKCPDRYLTYLNARSSRDFEYYKQFCVPGFKNNKGVAEVLQDGDCPAVLIPSKPLARRCFPAIHAYKGVLMVGNETTYEDGHGSRKNITDLVEGAKKANGVLEARQLAMRIFEDYTVSWYWIIIGLVIAMAMSLLFIILLRFLAGIMVWVMIIMVILVLGYGIFHCYMEYSRLRGEAGSDVSLVDLGFQTDFRVYLHLRQTWLAFMIILSILEVIIILLLIFLRKRILIAIALIKEASRAVGYVMCSLLYPLVTFFLLCLCIAYWASTAVFLSTSNEAVYKIFDDSPCPFTAKTCNPETFPSSNESRQCPNARCQFAFYGGESGYHRALLGLQIFNAFMFFWLANFVLALGQVTLAGAFASYYWALRKPDDLPAFPLFSAFGRALRYHTGSLAFGALILAIVQIIRVILEYLDQRLKAAENKFAKCLMTCLKCCFWCLEKFIKFLNRNAYIMIAIYGTNFCTSARNAFFLLMRNIIRVAVLDKVTDFLFLLGKLLIVGSVGILAFFFFTHRIRIVQDTAPPLNYYWVPILTVIVGSYLIAHGFFSVYGMCVDTLFLCFLEDLERNDGSAERPYFMSSTLKKLLNKTNKKAAES
B8 showed an MIST_MERS of 0, an MIST_SARS1 of 0, an MIST_SARS2 of 0.9503 and a Saint_MERS of 0. The molecule further registered a Saint_SARS1 of 0 and a Saint_SARS2 of 0.98.
